These results are taken from patent publication US9260483B2, “Triazacyclononane-based phosphinate ligand and its use for molecular imaging” (TECHNISCHE UNIVERSITÄT MÜNCHEN, priority 2011, dated 2016).

Data set [1] in a line: Log P determination: octanol-water partition coefficient (1-octanol/PBS) of the labelled compound.
Procedure: Octanol-water partition coefficients were determined by addition of ca. 50 kBq of the respective labelled compound to Eppendorf cup containing each 500 μl of 1-octanol and isotonic phosphate buffered saline (PBS). After 2 min of vigorous stirring, the phases were separated by centrifugation, 100 μl aliquots of each phase taken out and the activity contained determined with a gamma counter. Each experiment was repeated 5-8 times.
A short description of data set [2]: in vivo. The arrangement: species or system mice. The note with it: CD-1 athymic nude, mouse, total radioactivity. The protocol:
Biodistribution of ^68Ga-R3PEG4P9
Biodistribution studies were performed using CD-1 athymic nude mice bearing human melanoma xenografts on both shoulders (right: M21 cell line with high αvβ3 integrin xexpression, left: M21L cell line with low αvβ3 integrin expression). The mice were injected 6-9 MBq of ^68Ga-R3PEG4P9 (specific activity: ca. 900 GBq/μmol, corresponding to approx. 7-10 pmol of the tracer). After the specified time points (60 and 120 min, respectively), the mice were sacrificed, the organs taken out and counted in a gamma counter. For blockade, the mice were administered 200 μg (approx. 10 mg/kg) of unlabeled R3PEG4P9 10 min before tracer injection.
Data is visualized in the chart (FIG. 3).

Data set [3] has as its system CD-1 athymic nude mice bearing human melanoma xenografts. The note with it: mouse.
Data set [4] has as its target T1, αvβ3 integrin (Homo sapiens, UniProt P05106+P06756).
T1 construct: endogenous in cells; host or cells: M21 human melanoma cells
Briefly: In vitro binding assay: displacement of 125I-echistatin on M21 human melanoma cells. Conditions: log IC50. A general note: Loss of bound radioactivity is the signal in a displacement assay; it reports binding, not function.

Where two headings read alike, the source gives them in different places.

T1 sequence (P06756 31-889 limits assumed): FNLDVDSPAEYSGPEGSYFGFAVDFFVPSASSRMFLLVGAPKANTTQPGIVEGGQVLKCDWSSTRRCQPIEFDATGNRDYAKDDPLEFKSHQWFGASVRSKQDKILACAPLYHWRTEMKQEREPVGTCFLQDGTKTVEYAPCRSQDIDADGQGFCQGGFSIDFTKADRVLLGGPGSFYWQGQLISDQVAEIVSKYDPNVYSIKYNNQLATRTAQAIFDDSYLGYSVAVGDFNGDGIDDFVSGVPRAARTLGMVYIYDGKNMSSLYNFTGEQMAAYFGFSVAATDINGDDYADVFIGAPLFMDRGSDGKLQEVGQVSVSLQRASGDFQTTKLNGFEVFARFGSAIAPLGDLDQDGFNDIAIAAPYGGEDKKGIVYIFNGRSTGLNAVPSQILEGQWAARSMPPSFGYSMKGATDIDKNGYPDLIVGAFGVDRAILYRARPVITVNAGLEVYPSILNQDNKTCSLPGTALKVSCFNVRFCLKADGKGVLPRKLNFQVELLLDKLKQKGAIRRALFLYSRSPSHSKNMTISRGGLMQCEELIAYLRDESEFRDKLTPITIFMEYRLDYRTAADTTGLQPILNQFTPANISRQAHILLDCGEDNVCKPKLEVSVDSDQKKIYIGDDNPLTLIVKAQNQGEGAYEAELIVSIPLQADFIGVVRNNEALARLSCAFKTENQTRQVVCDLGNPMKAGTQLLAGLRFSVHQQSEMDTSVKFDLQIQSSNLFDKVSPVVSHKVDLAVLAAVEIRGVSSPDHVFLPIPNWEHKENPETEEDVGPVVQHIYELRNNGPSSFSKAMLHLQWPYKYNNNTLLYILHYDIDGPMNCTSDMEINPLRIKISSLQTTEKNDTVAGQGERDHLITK
T1 sequence (P06756 891-1048 partner limits assumed): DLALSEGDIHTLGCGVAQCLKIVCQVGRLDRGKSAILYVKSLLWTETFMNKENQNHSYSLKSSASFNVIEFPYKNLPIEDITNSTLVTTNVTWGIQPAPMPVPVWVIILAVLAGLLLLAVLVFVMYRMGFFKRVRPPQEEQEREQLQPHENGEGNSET
T1 sequence (P05106 27-788): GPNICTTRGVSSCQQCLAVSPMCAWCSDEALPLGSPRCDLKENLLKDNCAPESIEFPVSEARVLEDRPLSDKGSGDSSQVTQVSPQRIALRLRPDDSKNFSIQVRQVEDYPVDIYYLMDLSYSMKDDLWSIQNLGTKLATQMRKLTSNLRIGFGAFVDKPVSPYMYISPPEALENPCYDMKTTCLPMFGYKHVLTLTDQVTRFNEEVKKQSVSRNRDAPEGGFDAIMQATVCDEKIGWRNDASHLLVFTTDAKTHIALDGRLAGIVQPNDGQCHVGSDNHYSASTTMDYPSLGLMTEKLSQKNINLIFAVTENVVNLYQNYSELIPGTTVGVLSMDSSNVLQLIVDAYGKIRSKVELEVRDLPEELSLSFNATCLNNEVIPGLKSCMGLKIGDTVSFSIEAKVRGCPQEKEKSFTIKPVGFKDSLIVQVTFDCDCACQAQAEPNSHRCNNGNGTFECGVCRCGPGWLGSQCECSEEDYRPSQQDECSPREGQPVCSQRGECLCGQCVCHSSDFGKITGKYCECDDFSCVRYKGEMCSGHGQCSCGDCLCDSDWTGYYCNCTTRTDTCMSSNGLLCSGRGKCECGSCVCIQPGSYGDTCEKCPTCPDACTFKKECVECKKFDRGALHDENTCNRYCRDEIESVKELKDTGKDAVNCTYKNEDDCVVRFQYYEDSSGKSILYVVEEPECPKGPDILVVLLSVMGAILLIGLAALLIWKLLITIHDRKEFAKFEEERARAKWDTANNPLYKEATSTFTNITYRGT

The logP is a log measure of how a compound divides between an organic and an aqueous phase. Low values mean lower lipophilicity, high ones higher lipophilicity. In the case of `N=C(N)NCCC[C@@H]1NC(=O)[C@H](CCCCNC(=O)CCOCCOCCOCCOCCOCCOCCOCCOCCNC(=O)CCP(=O)(O)CN2CCN(CP(=O)(O)CCC(=O)NCCOCCOCCOCCOCCOCCOCCOCCOCCC(=O)NCCCC[C@@H]3NC(=O)[C@@H](Cc4ccccc4)NC(=O)[C@H](CC(=O)O)NC(=O)CNC(=O)[C@H](CCCNC(=N)N)NC3=O)CCN(CP(=O)(O)CCC(=O)NCCOCCOCCOCCOCCOCCOCCOCCOCCC(=O)NCCCC[C@@H]3NC(=O)[C@@H](Cc4ccccc4)NC(=O)[C@H](CC(=O)O)NC(=O)CNC(=O)[C@H](CCCNC(=N)N)NC3=O)CC2)NC(=O)[C@@H](Cc2ccccc2)NC(=O)[C@H](CC(=O)O)NC(=O)CNC1=O` [Ga-R3PEG8P9], the log partition coefficient (logP) in data set [1] was -4.13 ± 0.16.

Turning to `N=C(N)NCCC[C@@H]1NC(=O)[C@H](CCCCNC(=O)CCOCCOCCOCCOCCNC(=O)CCP(=O)(O)CN2CCN(CP(=O)(O)CCC(=O)NCCOCCOCCOCCOCCC(=O)NCCCC[C@@H]3NC(=O)[C@@H](Cc4ccccc4)NC(=O)[C@H](CC(=O)O)NC(=O)CNC(=O)[C@H](CCCNC(=N)N)NC3=O)CCN(CP(=O)(O)CCC(=O)NCCOCCOCCOCCOCCC(=O)NCCCC[C@@H]3NC(=O)[C@@H](Cc4ccccc4)NC(=O)[C@H](CC(=O)O)NC(=O)CNC(=O)[C@H](CCCNC(=N)N)NC3=O)CC2)NC(=O)[C@@H](Cc2ccccc2)NC(=O)[C@H](CC(=O)O)NC(=O)CNC1=O` (single isomer, unassigned) [68Ga-R3PEG4P9, metal not drawn], the tissue uptake at 1 h in data set [2] (adrenal gland, 60 min, blocked, read-out: uptake % ID/g, adrenal gland) was determined as 0.36 %ID/g; in data set [2] (adrenal gland, 60 min, read-out: uptake % ID/g, adrenal gland), 27.8 %ID/g; in data set [2] (blood, 60 min, blocked (200 μg unlabeled R3PEG4P9 10 min before), read-out: uptake % ID/g, blood), 0.09 %ID/g; in data set [2] (blood, 60 min after tracer injection, read-out: uptake % ID/g, blood), 0.31 %ID/g; in data set [2] (heart, 60 min, blocked, read-out: uptake % ID/g, heart), 0.08 %ID/g; in data set [2] (heart, 60 min, read-out: uptake % ID/g, heart) it was 1.29 %ID/g. For the same molecule, the tissue uptake at 1 h came out at 1.97 %ID/g in data set [2] (kidneys, 60 min, blocked, read-out: uptake % ID/g, kidneys); 10.2 %ID/g in data set [2] (kidneys, 60 min, read-out: uptake % ID/g, kidneys); 0.11 %ID/g in data set [2] (large int., 60 min, blocked, read-out: uptake % ID/g, large int.); 2.44 %ID/g in data set [2] (large int., 60 min, read-out: uptake % ID/g, large int.); 0.32 %ID/g in data set [2] (liver, 60 min, blocked, read-out: uptake % ID/g, liver); 5.18 %ID/g in data set [2] (liver, 60 min, read-out: uptake % ID/g, liver). The tissue uptake at 1 h in data set [2] (lung, 60 min, blocked, read-out: uptake % ID/g, lung) was 0.54 %ID/g; in data set [2] (lung, 60 min, read-out: uptake % ID/g, lung), 2.96 %ID/g; in data set [2] (muscle, 60 min, blocked, read-out: uptake % ID/g, muscle) it was 0.05 %ID/g; in data set [2] (muscle, 60 min, read-out: uptake % ID/g, muscle), 0.95 %ID/g; in data set [2] (pancreas, 60 min, blocked, read-out: uptake % ID/g, pancreas), 0.07 %ID/g; in data set [2] (pancreas, 60 min, read-out: uptake % ID/g, pancreas), 0.88 %ID/g. Further, the tissue uptake at 1 h in data set [2] (small int., 60 min, blocked, read-out: uptake % ID/g, small int.) was found to be 0.24 %ID/g; in data set [2] (small int., 60 min, read-out: uptake % ID/g, small int.), 4.92 %ID/g; in data set [2] (spleen, 60 min, blocked, read-out: uptake % ID/g, spleen), 0.24 %ID/g; in data set [2] (spleen, 60 min, read-out: uptake % ID/g, spleen), 3.38 %ID/g; in data set [2] (stomach, 60 min, blocked, read-out: uptake % ID/g, stomach) it was 0.17 %ID/g; in data set [2] (stomach, 60 min, read-out: uptake % ID/g, stomach), 4.43 %ID/g. Also, the tissue uptake at 1 h in data set [2] (thyroid, 60 min, blocked, read-out: uptake % ID/g, thyroid) amounted to 0.17 %ID/g; in data set [2] (thyroid, 60 min, read-out: uptake % ID/g, thyroid) it was 3.27 %ID/g; in data set [2] (tumor M21 (high αvβ3), 60 min, blocked, read-out: uptake % ID/g, tumor M21) it was 0.62 %ID/g; in data set [2] (tumor M21 (high αvβ3), 60 min, read-out: uptake % ID/g, tumor M21), 6.08 %ID/g; in data set [2] (tumor M21L (low αvβ3), 60 min, blocked, read-out: uptake % ID/g, tumor M21L) it was 0.31 %ID/g; in data set [2] (tumor M21L (low αvβ3), 60 min, read-out: uptake % ID/g, tumor M21L), 1.48 %ID/g. For the same molecule, the tissue uptake at 2 h in data set [2] (adrenal gland, 120 min, read-out: uptake % ID/g, adrenal gland) turned out to be 24.2 %ID/g; in data set [2] (blood, 120 min after tracer injection, read-out: uptake % ID/g, blood) it was 0.16 %ID/g; in data set [2] (heart, 120 min, read-out: uptake % ID/g, heart), 1.47 %ID/g; in data set [2] (kidneys, 120 min, read-out: uptake % ID/g, kidneys), 8.63 %ID/g; in data set [2] (large int., 120 min, read-out: uptake % ID/g, large int.), 2.27 %ID/g; in data set [2] (liver, 120 min, read-out: uptake % ID/g, liver), 3.97 %ID/g. In addition, the tissue uptake at 2 h in data set [2] (lung, 120 min, read-out: uptake % ID/g, lung) amounted to 2.15 %ID/g; in data set [2] (muscle, 120 min, read-out: uptake % ID/g, muscle), 0.67 %ID/g; in data set [2] (pancreas, 120 min, read-out: uptake % ID/g, pancreas) it was 0.81 %ID/g; in data set [2] (small int., 120 min, read-out: uptake % ID/g, small int.), 3.75 %ID/g; in data set [2] (spleen, 120 min, read-out: uptake % ID/g, spleen), 3.5 %ID/g; in data set [2] (stomach, 120 min, read-out: uptake % ID/g, stomach), 3.56 %ID/g. Moreover, the tissue uptake at 2 h in data set [2] (thyroid, 120 min, read-out: uptake % ID/g, thyroid) came to 2.89 %ID/g; in data set [2] (tumor M21 (high αvβ3), 120 min, read-out: uptake % ID/g, tumor M21), 4.63 %ID/g; in data set [2] (tumor M21L (low αvβ3), 120 min, read-out: uptake % ID/g, tumor M21L), 1.7 %ID/g. Besides, the “fraction of the blood activity in the plasma after centrifugation” value in data set [3] (in vivo) was determined as 96%. Moreover, in data set [3] (in vivo), the “metabolites in tissue extracts, plasma and urine (radio-HPLC)” value was “no metabolites could be detected”.

The term IC50 denotes the concentration at which inhibition is half-maximal. A low value points to greater potency in that assay. With `N=C(N)NCCC[C@@H]1NC(=O)[C@H](CCCCNC(=O)CCOCCOCCOCCOCCNC(=O)CCP(=O)(O)CN2CCN(CP(=O)(O)CCC(=O)NCCOCCOCCOCCOCCC(=O)NCCCC[C@@H]3NC(=O)[C@H](Cc4ccccc4)NC(=O)[C@H](CC(=O)O)NC(=O)CNC(=O)[C@H](CCCNC(=N)N)NC3=O)CCN(CP(=O)(O)CCC(=O)NCCOCCOCCOCCOCCC(=O)NCCCC[C@@H]3NC(=O)[C@@H](Cc4ccccc4)NC(=O)[C@@H](CC(=O)O)NC(=O)CNC(=O)[C@@H](CCCNC(=N)N)NC3=O)CC2)NC(=O)[C@H](Cc2ccccc2)NC(=O)[C@H](CC(=O)O)NC(=O)CNC1=O` [Compound R3PEG4P9], the “stability in vivo (analysis of metabolites)” value in data set [3] is reported as “fully stable in vivo”. This molecule had a concentration for half-maximal inhibition (IC50) in data set [4] of 42.7 nM.
